Test results: article PMC4399498 (Nature communications, 2014)

Legend:
[1] = target: T1, KdpE (Escherichia coli, UniProt P21866 1-225); assay: fluorescence anisotropy
T1 sequence: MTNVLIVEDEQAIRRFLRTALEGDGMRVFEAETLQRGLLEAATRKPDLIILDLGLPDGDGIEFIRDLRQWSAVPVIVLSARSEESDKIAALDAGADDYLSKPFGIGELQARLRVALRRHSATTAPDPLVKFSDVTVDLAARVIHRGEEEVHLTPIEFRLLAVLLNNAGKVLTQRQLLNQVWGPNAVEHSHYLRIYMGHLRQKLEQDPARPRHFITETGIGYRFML

[2] = target: T2, KdpE-E216A (Escherichia coli, UniProt P21866 1-225, E216A); assay: fluorescence anisotropy
T2 sequence: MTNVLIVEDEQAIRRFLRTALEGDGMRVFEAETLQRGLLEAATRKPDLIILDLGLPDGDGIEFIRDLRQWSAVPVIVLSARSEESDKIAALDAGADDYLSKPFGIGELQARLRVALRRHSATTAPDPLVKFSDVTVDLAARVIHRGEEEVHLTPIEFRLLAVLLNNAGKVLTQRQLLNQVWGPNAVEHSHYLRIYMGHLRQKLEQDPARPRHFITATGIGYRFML

B1: 24-bp KdpE site DNA, TAMRA (anisotropy) (dsDNA)
DNA 1: CATTTTTATACTTTTTTTACACCC
DNA 2: GGGTGTAAAAAAAGTATAAAAATG
B1 gave a Kd [1] of 30 ± 4 nM and a Kd [2] of 3.5 ± 0.5 nM.
